Laboratory results: patent US20240400677A1
Residue numbers refer to the chain shown, from its start.

B1: Antibody 28 (scFv, V domains shown)
VH: QVQLVQSGAEVKKPGASVKVSCKASGYTFTSYNIHWVRQAPGQGLEWMGWISAYNGNTNYAQKLQGRVTMTRDTSTSTVYMELSSLRSEDTAVYYCALDGGQLGVAFDIWGQGTMVTVSS
VL: DIQMTQSPSSLSASVGDRVTITCRASQGISNWLAWYQQKPGKAPKLLIYDASNLDAGVPSRFSGSGSGTDFTLTISSLQPEDFATYYCQQANSLPLTFGGGTKVEIK
B2: Antibody 11 (scFv, V domains shown)
VH: QVQLVQSGAEVKKPGASVKVSCKASGYTFTSYDINWVRQAPGQGLEWMGWMNPNSGNTGYAQKFQGRVTMTRDTSTSTVYMELSSLRSEDTAVYYCAKGAVAGTYYYYGMDVWGQGTTVTVSS
VL: B1 VL with G28T, S30N, W32Y, A34N, D55E, A56T, L94F, G100Q
B3: Antibody 37 (scFv, V domains shown)
VH: QVQLVQSGAEVKKPGASVKVSCKASGYTLNNYDINWVRQAPGQGLEWMGWISGYNGNTNYAQKLQGRVTMTRDTSTSTVYMELSSLRSEDTAVYYCARVGSSWEENDQWGQGTLVTVSS
VL: B1 VL with G28S, N31R, D50A, N53S, D55E, A56S, A91T, N92H, L94F
B4: Antibody 31 (scFv, V domains shown)
VH: QVQLVQSGAEVKKPGASVKVSCKASGGTFRSYAISWVRQAPGQGLEWMGWMNPNSGNTGYAQKFQGRVTMTRDTSTSTVYMELSSLRSEDTAVYYCARESVLKGGMDVWGQGTTVTVSS
VL: DIVMTQSPDSLAVSLGERATINCRSSQSLFHSSTNANNLAWYQQKPGQPPKLLIYWASTRESGVPDRFSGSGSGTDFTLTISSLQAEDVAVYYCQQYYITPLTFGQGTRLEIK

Target: human SIRPα V1-His monomer protein (human) (UniProt P78324)
Assay: BLI Octet, V5-scFv PPE captured, SIRP-His 500 nM

Chain of human SIRPα V1-His monomer protein (human) (P78324 31-370): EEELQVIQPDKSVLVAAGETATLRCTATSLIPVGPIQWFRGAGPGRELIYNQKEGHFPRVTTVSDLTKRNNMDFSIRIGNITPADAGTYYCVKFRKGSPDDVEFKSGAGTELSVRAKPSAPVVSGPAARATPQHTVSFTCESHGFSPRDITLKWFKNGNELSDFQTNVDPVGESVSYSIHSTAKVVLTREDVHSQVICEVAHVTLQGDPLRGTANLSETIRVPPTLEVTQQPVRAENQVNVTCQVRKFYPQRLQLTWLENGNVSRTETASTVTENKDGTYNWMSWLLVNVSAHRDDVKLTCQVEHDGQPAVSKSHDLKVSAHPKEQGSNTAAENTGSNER

| kdis | Binder |
| --- | --- |
| > 0.01 s⁻¹ | B1 |
| > 0.01 s⁻¹ | B2 |
| > 0.01 s⁻¹ | B3 |
| > 0.01 s⁻¹ | B4 |
